Source: US20180155450A1 (Sanofi, published 2018)

T1: recombinant human IL4 (human, UniProt P05112 25-153)
T1 construct: bought; also called Antigen1
T1 sequence (looked up): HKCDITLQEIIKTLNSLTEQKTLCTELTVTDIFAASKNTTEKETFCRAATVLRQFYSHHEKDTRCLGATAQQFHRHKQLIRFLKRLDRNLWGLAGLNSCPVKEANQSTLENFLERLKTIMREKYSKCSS

B1: CODV-Ig Batch ID 207 (IL4 × IL13 on HC; L1=5, L2=3, L3=2, L4=0) (bispecific antibody)
chain 1: not shown
chain 2: DIVLTQSPASLAVSLGQRATISCRASESVDSYGQSYMHWYQQKAGQPPKLLIYLASNLESGVPARFSGSGSRTDFTLTIDPVQAEDAATYYCQQNAEDSRTFGGGTKLEIKGGGGGDIQMTQSPASLSVSVGDTITLTCHASQNIDVWLSWFQQKPGNIPKLLIYKASNLHTGVPSRFSGSGSGTGFTLTISSLQPEDIATYYCQQAHSYPFTFGGGTKLEIKGGGRTVAAPSVFIFPPSDEQLKSGTASVVCLLNNFYPREAKVQWKVDNALQSGNSQESVTEQDSKDSTYSLSSTLTLSKADYEKHKVYACEVTHQGLSSPVTKSFNRGEC
B2: CODV-Ig Batch ID 208 (IL4 × IL13 on HC; L1=5, L2=5, L3=2, L4=0) (bispecific antibody)
heavy: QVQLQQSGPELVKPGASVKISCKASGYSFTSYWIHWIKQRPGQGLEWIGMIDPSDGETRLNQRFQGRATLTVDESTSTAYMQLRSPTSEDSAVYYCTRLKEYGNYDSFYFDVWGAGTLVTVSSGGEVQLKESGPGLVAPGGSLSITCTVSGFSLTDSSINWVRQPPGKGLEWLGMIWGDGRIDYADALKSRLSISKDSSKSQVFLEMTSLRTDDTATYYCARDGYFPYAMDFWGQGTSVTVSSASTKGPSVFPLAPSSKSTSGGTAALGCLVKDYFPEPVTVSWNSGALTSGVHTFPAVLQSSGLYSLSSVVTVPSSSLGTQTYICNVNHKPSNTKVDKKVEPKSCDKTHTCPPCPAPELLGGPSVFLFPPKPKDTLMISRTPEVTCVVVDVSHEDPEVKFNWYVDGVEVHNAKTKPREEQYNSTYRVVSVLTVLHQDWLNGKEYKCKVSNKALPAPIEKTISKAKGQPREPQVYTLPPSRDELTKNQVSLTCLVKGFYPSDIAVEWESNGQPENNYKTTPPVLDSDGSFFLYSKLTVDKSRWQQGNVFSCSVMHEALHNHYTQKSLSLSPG
light: DIVLTQSPASLAVSLGQRATISCRASESVDSYGQSYMHWYQQKAGQPPKLLIYLASNLESGVPARFSGSGSRTDFTLTIDPVQAEDAATYYCQQNAEDSRTFGGGTKLEIKGGGGGDIQMTQSPASLSVSVGDTITLTCHASQNIDVWLSWFQQKPGNIPKLLIYKASNLHTGVPSRFSGSGSGTGFTLTISSLQPEDIATYYCQQAHSYPFTFGGGTKLEIKGGGGGRTVAAPSVFIFPPSDEQLKSGTASVVCLLNNFYPREAKVQWKVDNALQSGNSQESVTEQDSKDSTYSLSSTLTLSKADYEKHKVYACEVTHQGLSSPVTKSFNRGEC
notes: IgG1 CODV-Ig, heavy chain as template; L4 = 0 (no linker)
B3: CODV-Ig Batch ID 232 (IL4 × IL13 on HC; L1=5, L2=5, L3=5, L4=0) (bispecific antibody)
heavy: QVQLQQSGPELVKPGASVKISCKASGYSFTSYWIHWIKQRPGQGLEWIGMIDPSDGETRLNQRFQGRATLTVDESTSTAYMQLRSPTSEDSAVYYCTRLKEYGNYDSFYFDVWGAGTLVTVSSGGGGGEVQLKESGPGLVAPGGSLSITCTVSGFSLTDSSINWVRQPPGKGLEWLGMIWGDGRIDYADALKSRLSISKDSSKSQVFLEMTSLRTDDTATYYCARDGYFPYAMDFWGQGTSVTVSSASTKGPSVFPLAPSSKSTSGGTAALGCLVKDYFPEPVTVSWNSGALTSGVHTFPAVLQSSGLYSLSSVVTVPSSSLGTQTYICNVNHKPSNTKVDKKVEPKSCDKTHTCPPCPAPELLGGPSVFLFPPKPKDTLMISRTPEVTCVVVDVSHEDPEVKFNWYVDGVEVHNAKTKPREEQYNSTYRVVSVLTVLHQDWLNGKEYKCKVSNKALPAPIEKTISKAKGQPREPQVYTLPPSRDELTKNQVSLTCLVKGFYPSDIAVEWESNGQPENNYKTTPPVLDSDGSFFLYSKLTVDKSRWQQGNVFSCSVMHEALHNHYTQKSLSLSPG
light: DIVLTQSPASLAVSLGQRATISCRASESVDSYGQSYMHWYQQKAGQPPKLLIYLASNLESGVPARFSGSGSRTDFTLTIDPVQAEDAATYYCQQNAEDSRTFGGGTKLEIKGGGGGDIQMTQSPASLSVSVGDTITLTCHASQNIDVWLSWFQQKPGNIPKLLIYKASNLHTGVPSRFSGSGSGTGFTLTISSLQPEDIATYYCQQAHSYPFTFGGGTKLEIKGGGGGRTVAAPSVFIFPPSDEQLKSGTASVVCLLNNFYPREAKVQWKVDNALQSGNSQESVTEQDSKDSTYSLSSTLTLSKADYEKHKVYACEVTHQGLSSPVTKSFNRGEC
notes: as for B2
B4: CODV-Ig Batch ID 210 (IL4 × IL13 on HC; L1=7, L2=5, L3=2, L4=0) (bispecific antibody)
heavy: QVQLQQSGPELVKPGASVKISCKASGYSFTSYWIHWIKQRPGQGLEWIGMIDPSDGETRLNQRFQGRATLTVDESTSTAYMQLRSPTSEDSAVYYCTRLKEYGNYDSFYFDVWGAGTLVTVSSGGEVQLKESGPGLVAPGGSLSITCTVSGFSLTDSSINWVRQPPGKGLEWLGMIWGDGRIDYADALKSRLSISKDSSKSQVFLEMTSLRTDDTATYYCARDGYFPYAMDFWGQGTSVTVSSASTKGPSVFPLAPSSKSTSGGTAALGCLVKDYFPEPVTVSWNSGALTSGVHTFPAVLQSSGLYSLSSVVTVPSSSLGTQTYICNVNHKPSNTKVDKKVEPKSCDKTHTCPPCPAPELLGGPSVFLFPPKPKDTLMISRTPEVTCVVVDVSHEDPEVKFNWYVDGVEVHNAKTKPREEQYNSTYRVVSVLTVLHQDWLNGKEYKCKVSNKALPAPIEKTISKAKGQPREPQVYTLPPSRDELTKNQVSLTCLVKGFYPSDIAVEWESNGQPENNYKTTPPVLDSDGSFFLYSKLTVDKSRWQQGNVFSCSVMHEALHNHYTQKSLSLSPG
light: DIVLTQSPASLAVSLGQRATISCRASESVDSYGQSYMHWYQQKAGQPPKLLIYLASNLESGVPARFSGSGSRTDFTLTIDPVQAEDAATYYCQQNAEDSRTFGGGTKLEIKGGGGGGGDIQMTQSPASLSVSVGDTITLTCHASQNIDVWLSWFQQKPGNIPKLLIYKASNLHTGVPSRFSGSGSGTGFTLTISSLQPEDIATYYCQQAHSYPFTFGGGTKLEIKGGGGGRTVAAPSVFIFPPSDEQLKSGTASVVCLLNNFYPREAKVQWKVDNALQSGNSQESVTEQDSKDSTYSLSSTLTLSKADYEKHKVYACEVTHQGLSSPVTKSFNRGEC
notes: as for B2
B5: CODV-Ig Batch ID 204 (IL4 × IL13 on HC; L1=7, L2=5, L3=1, L4=2) (bispecific antibody, IgG1)
heavy: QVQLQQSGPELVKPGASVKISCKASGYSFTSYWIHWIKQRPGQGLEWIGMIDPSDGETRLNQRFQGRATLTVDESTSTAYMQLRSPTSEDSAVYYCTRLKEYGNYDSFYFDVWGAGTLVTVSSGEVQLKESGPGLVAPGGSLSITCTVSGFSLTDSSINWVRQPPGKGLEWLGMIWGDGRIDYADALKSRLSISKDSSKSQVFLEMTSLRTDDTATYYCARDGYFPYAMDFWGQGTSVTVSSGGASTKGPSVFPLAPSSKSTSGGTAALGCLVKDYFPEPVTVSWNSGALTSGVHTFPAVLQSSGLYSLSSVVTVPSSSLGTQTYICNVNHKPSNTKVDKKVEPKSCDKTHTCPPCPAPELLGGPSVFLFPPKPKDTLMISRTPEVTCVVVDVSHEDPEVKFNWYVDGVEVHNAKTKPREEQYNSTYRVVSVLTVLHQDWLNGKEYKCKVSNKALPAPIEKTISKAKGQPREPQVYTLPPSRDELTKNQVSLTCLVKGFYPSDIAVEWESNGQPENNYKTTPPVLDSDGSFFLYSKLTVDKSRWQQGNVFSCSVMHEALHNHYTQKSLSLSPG
light: DIVLTQSPASLAVSLGQRATISCRASESVDSYGQSYMHWYQQKAGQPPKLLIYLASNLESGVPARFSGSGSRTDFTLTIDPVQAEDAATYYCQQNAEDSRTFGGGTKLEIKGGGGGGGDIQMTQSPASLSVSVGDTITLTCHASQNIDVWLSWFQQKPGNIPKLLIYKASNLHTGVPSRFSGSGSGTGFTLTISSLQPEDIATYYCQQAHSYPFTFGGGTKLEIKGGGGGRTVAAPSVFIFPPSDEQLKSGTASVVCLLNNFYPREAKVQWKVDNALQSGNSQESVTEQDSKDSTYSLSSTLTLSKADYEKHKVYACEVTHQGLSSPVTKSFNRGEC
notes: IgG1 CODV-Ig, heavy chain as template
B6: CODV-Ig Batch ID 234 (IL4 × IL13 on HC; L1=7, L2=5, L3=5, L4=0) (bispecific antibody)
heavy: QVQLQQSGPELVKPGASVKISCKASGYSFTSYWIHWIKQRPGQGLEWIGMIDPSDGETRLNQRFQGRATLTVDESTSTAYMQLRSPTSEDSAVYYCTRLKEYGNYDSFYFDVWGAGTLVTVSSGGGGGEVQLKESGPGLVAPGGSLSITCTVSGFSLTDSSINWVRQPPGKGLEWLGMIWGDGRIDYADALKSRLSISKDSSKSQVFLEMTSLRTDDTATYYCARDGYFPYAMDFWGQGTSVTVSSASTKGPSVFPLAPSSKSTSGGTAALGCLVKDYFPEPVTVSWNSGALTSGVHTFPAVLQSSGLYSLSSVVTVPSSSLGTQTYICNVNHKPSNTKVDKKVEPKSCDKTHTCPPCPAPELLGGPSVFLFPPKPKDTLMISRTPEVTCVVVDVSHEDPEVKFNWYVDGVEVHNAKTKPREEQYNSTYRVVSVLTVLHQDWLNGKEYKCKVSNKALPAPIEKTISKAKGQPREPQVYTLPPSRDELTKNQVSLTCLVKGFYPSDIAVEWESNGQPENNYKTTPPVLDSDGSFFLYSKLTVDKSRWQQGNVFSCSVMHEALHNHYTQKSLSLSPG
light: DIVLTQSPASLAVSLGQRATISCRASESVDSYGQSYMHWYQQKAGQPPKLLIYLASNLESGVPARFSGSGSRTDFTLTIDPVQAEDAATYYCQQNAEDSRTFGGGTKLEIKGGGGGGGDIQMTQSPASLSVSVGDTITLTCHASQNIDVWLSWFQQKPGNIPKLLIYKASNLHTGVPSRFSGSGSGTGFTLTISSLQPEDIATYYCQQAHSYPFTFGGGTKLEIKGGGGGRTVAAPSVFIFPPSDEQLKSGTASVVCLLNNFYPREAKVQWKVDNALQSGNSQESVTEQDSKDSTYSLSSTLTLSKADYEKHKVYACEVTHQGLSSPVTKSFNRGEC
notes: as for B2

What follows are binders tested against T1, recombinant human IL4 (assay: SPR (Biacore 3000), captured CODV-Ig, antigen as analyte;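 further: kd derived from kinetic fits in BIAevaluation 4.1, with signals referenced against a flow cell lacking captured antibody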).
Method: (§1) Kinetic binding analysis by Biacore was performed as follows. Surface plasmon resonance technology on a Biacore 3000 (GE Healthcare) was used for detailed kinetic characterization of purified antibodies. […] Chip surfaces were regenerated with 10 mM glycine pH 2.5. Kinetic parameters were analyzed and calculated in the BIAevaluation program package v4.1 using a flow cell without captured antibody as a reference.
With B1 the Kd was 3 pM.
B2 gave a Kd of 10 pM.
Work on B3 yielded a Kd of 8 pM.
B4 gave a Kd of 4 pM.
B5 gave a Kd of 3 pM.
B6 gave a Kd of 3 pM.

These binders were tested against T2, recombinant human IL13 (human, UniProt P35225 35-146, limits assumed) in the same assay as above.
T2 construct: bought; also called Antigen2
T2 sequence (P35225 35-146 limits assumed): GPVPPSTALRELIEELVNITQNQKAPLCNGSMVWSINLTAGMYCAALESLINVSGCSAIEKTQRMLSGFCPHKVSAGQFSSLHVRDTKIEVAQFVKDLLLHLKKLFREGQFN
Method: as §1
With B1 the Kd was 33 pM.
